Reference: patent US20250327097A1, “ORGANISMS PRODUCING LESS CROTONIC ACID” (Global Bioenergies, priority 2021, published 2025)
Positions count from the first letter of the chain named. In names and notes the source's numbering stands.

B1: N388M-C430P-L432F-L434W-S436A (protein)
chain: MFLKSLREQINLLKRQGDLRIINRPVDSYLEAAAIIRRSTETKAPVPLMTNIKGYPGCSIVGGLAALSSNPEYPLSRVAMSLGLSTTASAQSIVQYLIDGLKKTPYLPVEIDSNSAPCKQNILRGEDASLAHFPIPQVHQHDGNRYVNTWGVFIVESPDGQWCNWSIQRVQYLNDRQMIALVFPSQHISDIWEEWVKIGKPMPYALVQGCEPIVPYIAGLPLLERNVNEAEYIGALYGKGIEVVKCETHDLRVPASSEVVIEGYFAITREGVEGPFGEFAGYIPNENSLQPILSITAISWQDDPIWPVVAEGKPVDEYHTCSGIGDAAAIQNVLLTANLPVSFVWVPLYSACHLMIVSINRHWRQTHPDLTSEQLTKKVGDVIHQTRMSIKLPKIVVLDDDVDPADTESLLWALATRIHPERKRYFYESPIFPWLACYSEEERHNRKGKRVIIDALLPENHGAISSFDYAYPDDIKQRVLMHWETDFSHD
B2: N388M-C430S-L432F-L434W-S436A (protein)
chain: B1 chain with P430S
B3: N388M-K394R-L432F-L434W-S436A (protein)
chain: B1 chain with K394R, P430C
B4: K394R-C430P-L432F-L434W-S436A (protein)
chain: B1 chain with M388N, K394R
B5: K394R-C430S-L432F-L434W-S436A (protein)
chain: B1 chain with M388N, K394R, P430S
B6: N388M-C430P-L432F-L434W-S436N (protein)
chain: B1 chain with A436N
B7: N388M-C430S-L432F-L434W-S436N (protein)
chain: B1 chain with P430S, A436N
B8: N388M-K394R-L432F-L434W-S436N (protein)
chain: B1 chain with K394R, P430C, A436N
B9: K394R-C430S-L432F-L434W-S436N (protein)
chain: B1 chain with M388N, K394R, P430S, A436N
B10: K394R-C430P-L432F-L434W-S436N (protein)
chain: B1 chain with M388N, K394R, A436N
B11: N388M-K394R-C430S-L432F-L434W-S436A (protein)
chain: B1 chain with K394R, P430S
B12: N388M-K394R-C430P-L432F-L434W-S436A (protein)
chain: B1 chain with K394R
B13: N388M-K394R-C430P-L432F-L434W-S436N (protein)
chain: B1 chain with K394R, A436N
B14: N388M-K394R-C430S-L432F-L434W-S436N (protein)
chain: B1 chain with K394R, P430S, A436N
B15: H141Y-N388M-K394R-C430P-L432F-L434W-S436N (protein)
chain: B1 chain with H141Y, K394R, A436N
B16: N388M-K394R-C430K-L432F-L434W-S436N (protein)
chain: B1 chain with K394R, P430K, A436N
B17: N388M-K394R-C430N-L432F-L434W-S436N (protein)
chain: B1 chain with K394R, P430N, A436N
B18: N388M-K394R-I395V-C430P-L432F-L434W-S436N (protein)
chain: B1 chain with K394R, I395V, A436N
B19: N388M-C430A-L432F-L434W-S436N (protein)
chain: B1 chain with P430A, A436N
B20: N388M-K394A-C430P-L432F-L434W-S436N (protein)
chain: B1 chain with K394A, A436N
B21: N388M-K394C-C430P-L432F-L434W-S436N (protein)
chain: B1 chain with K394C, A436N
B22: I283T-P284D-N287P-S322T-N388M-K423C-C430N-L432F-L434W-S436N-A463G-Y469D (protein)
chain: B1 chain with I283T, P284D, N287P, S322T, K423C, P430N, A436N, A463G, Y469D
B23: I283T-P284D-N285A-N287P-S322T-N388M-C430N-L432F-L434W-S436N-A463G-Y469D (protein)
chain: B1 chain with I283T, P284D, N285A, N287P, S322T, P430N, A436N, A463G, Y469D
B24: N388M-K394H-C430P-L432F-L434W-S436N (protein)
chain: B1 chain with K394H, A436N
B25: I283T-P284D-N285I-N287P-S322T-N388M-C430N-L432F-L434W-S436N-A463G-Y469D (protein)
chain: B1 chain with I283T, P284D, N285I, N287P, S322T, P430N, A436N, A463G, Y469D
B26: I283T-P284D-N285L-N287P-S322T-N388M-C430N-L432F-L434W-S436N-A463G-Y469D (protein)
chain: B1 chain with I283T, P284D, N285L, N287P, S322T, P430N, A436N, A463G, Y469D
B27: I283T-P284D-N287P-S322T-N388M-C430N-L432F-L434W-S436T-A463G-Y469D (protein)
chain: B1 chain with I283T, P284D, N287P, S322T, P430N, A436T, A463G, Y469D
B28: I283F-P284D-N287P-S322T-N388M-C430N-L432F-L434W-S436N-A463G-Y469D (protein)
chain: B1 chain with I283F, P284D, N287P, S322T, P430N, A436N, A463G, Y469D
B29: I283S-P284D-N287P-S322T-N388M-C430N-L432F-L434W-S436N-A463G-Y469D (protein)
chain: B1 chain with I283S, P284D, N287P, S322T, P430N, A436N, A463G, Y469D
B30: I283T-P284D-N287P-S288T-S322T-N388M-C430N-L432F-L434W-S436N-A463G-Y469D (protein)
chain: B1 chain with I283T, P284D, N287P, S288T, S322T, P430N, A436N, A463G, Y469D
B31: I283T-P284D-N287P-S322T-N388M-S429A-C430N-L432F-L434W-S436N-A463G-Y469D (protein)
chain: B1 chain with I283T, P284D, N287P, S322T, S429A, P430N, A436N, A463G, Y469D
B32: I283T-P284D-N287P-S322T-H384A-N388M-C430N-L432F-L434W-S436N-A463G-Y469D (protein)
chain: B1 chain with I283T, P284D, N287P, S322T, H384A, P430N, A436N, A463G, Y469D
B33: I283T-P284D-N287P-S322T-H384T-N388M-C430N-L432F-L434W-S436N-A463G-Y469D (protein)
chain: B1 chain with I283T, P284D, N287P, S322T, H384T, P430N, A436N, A463G, Y469D
B34: I283T-P284D-N287P-S322T-N388M-C430N-L432F-L434W-S436N-H444R-A463G-Y469D (protein)
chain: B1 chain with I283T, P284D, N287P, S322T, P430N, A436N, H444R, A463G, Y469D
B35: N388Q-C430P-L432F-L434W-S436N (protein)
chain: B1 chain with M388Q, A436N
B36: I283T-P284D-N287P-S322T-N388M-P393A-C430N-L432F-L434W-S436N-A463G-Y469D (protein)
chain: B1 chain with I283T, P284D, N287P, S322T, P393A, P430N, A436N, A463G, Y469D
B37: I283T-P284D-N287P-S322T-N388M-R422F-C430N-L432F-L434W-S436N-A463G-Y469D (protein)
chain: B1 chain with I283T, P284D, N287P, S322T, R422F, P430N, A436N, A463G, Y469D
B38: I283T-P284D-N287P-S322T-N388M-R422Q-C430N-L432F-L434W-S436N-A463G-Y469D (protein)
chain: B1 chain with I283T, P284D, N287P, S322T, R422Q, P430N, A436N, A463G, Y469D
B39: I283T-P284D-N287P-S322T-N388M-R422V-C430N-L432F-L434W-S436N-A463G-Y469D (protein)
chain: B1 chain with I283T, P284D, N287P, S322T, R422V, P430N, A436N, A463G, Y469D

System: 3-methylcrotonic acid
Format: biochemical, Yersinia frederiksenii
Parameters: key: “+” representing a low increase in activity; “++++” representing a high increase in activity

**Q.** How did the “Activity relative to WT” value turn out when B1 was run?
**A.** Its value is “+”.

**Q.** With B2 as the molecule, how does the “Activity relative to WT” value read?
**A.** The value was “+”.

**Q.** Which “Activity relative to WT” value does the source give for B3 here?
**A.** Its value is “+”.

**Q.** With B4 as the molecule, how does the “Activity relative to WT” value read?
**A.** Its value is “+”.

**Q.** Which “Activity relative to WT” value does the source give for B5 here?
**A.** Its value is “+”.

**Q.** For B6, which “Activity relative to WT” value is on record?
**A.** Its value is “+”.

**Q.** How did the “Activity relative to WT” value turn out when B7 was run?
**A.** The value was “+”.

**Q.** B8 was tested. Which “Activity relative to WT” value did it give?
**A.** Its value is “+”.

**Q.** B9 was tested. Which “Activity relative to WT” value did it give?
**A.** Its value is “+”.

**Q.** For B10, which “Activity relative to WT” value is on record?
**A.** Its value is “+”.

**Q.** For B11, which “Activity relative to WT” value is on record?
**A.** Its value is “+”.

**Q.** For B12, which “Activity relative to WT” value is on record?
**A.** Its value is “+”.

**Q.** Which “Activity relative to WT” value does the source give for B13 here?
**A.** The value was “+”.

**Q.** B14 was tested. Which “Activity relative to WT” value did it give?
**A.** The value was “+”.

**Q.** B15 was tested. Which “Activity relative to WT” value did it give?
**A.** Its value is “+”.

**Q.** For B16, which “Activity relative to WT” value is on record?
**A.** Its value is “+”.

**Q.** How did the “Activity relative to WT” value turn out when B17 was run?
**A.** Its value is “+”.

**Q.** Which “Activity relative to WT” value does the source give for B18 here?
**A.** The value was “+”.

**Q.** Which “Activity relative to WT” value does the source give for B19 here?
**A.** The value was “+”.

**Q.** With B20 as the molecule, how does the “Activity relative to WT” value read?
**A.** The value was “+”.

**Q.** B21 was tested. Which “Activity relative to WT” value did it give?
**A.** The value was “+”.

**Q.** Which “Activity relative to WT” value does the source give for B22 here?
**A.** The value was “++++”.

**Q.** How did the “Activity relative to WT” value turn out when B23 was run?
**A.** Its value is “++++”.

**Q.** B24 was tested. Which “Activity relative to WT” value did it give?
**A.** The value was “+”.

**Q.** Which “Activity relative to WT” value does the source give for B25 here?
**A.** Its value is “++++”.

**Q.** Which “Activity relative to WT” value does the source give for B26 here?
**A.** Its value is “++++”.

**Q.** Which “Activity relative to WT” value does the source give for B27 here?
**A.** The value was “++++”.

**Q.** With B28 as the molecule, how does the “Activity relative to WT” value read?
**A.** Its value is “++++”.

**Q.** B29 was tested. Which “Activity relative to WT” value did it give?
**A.** Its value is “++++”.

**Q.** Which “Activity relative to WT” value does the source give for B30 here?
**A.** Its value is “++++”.

**Q.** B31 was tested. Which “Activity relative to WT” value did it give?
**A.** The value was “++++”.

**Q.** Which “Activity relative to WT” value does the source give for B32 here?
**A.** The value was “++++”.

**Q.** With B33 as the molecule, how does the “Activity relative to WT” value read?
**A.** Its value is “++++”.

**Q.** With B34 as the molecule, how does the “Activity relative to WT” value read?
**A.** Its value is “++++”.

**Q.** Which “Activity relative to WT” value does the source give for B35 here?
**A.** The value was “+”.

**Q.** With B36 as the molecule, how does the “Activity relative to WT” value read?
**A.** Its value is “++++”.

**Q.** How did the “Activity relative to WT” value turn out when B37 was run?
**A.** The value was “++++”.

**Q.** With B38 as the molecule, how does the “Activity relative to WT” value read?
**A.** Its value is “++++”.

**Q.** With B39 as the molecule, how does the “Activity relative to WT” value read?
**A.** The value was “++++”.
